Assay results from patent US20190153406.

Legend:
[1] = tested on: IRS1 (insulin receptor substrate-1), species not stated

Substance	degradation of IRβ, Western Blot, HEK293T co-expression (FIG. 16B) (insulin receptor IR)	degradation of precursor protein of IRβ, HEK293T co-expression (insulin receptor IR)	MG53-mediated substrate degradation, Western Blot, HEK293T co-expression (FIG. 16) [1]	MG53-mediated substrate degradation, Western Blot, HEK293T co-expression (FIG. 17) [1]
mouse MG53-D-RING truncated mutant	mouse MG53-D-RING truncated mutant and mouse MG53 S255A mutant can hardly mediate IRβ degradation	mouse MG53-D-RING truncated mutant and mouse MG53 S255A mutant almost completely inhibited MG53-mediated degradation	human or mouse MG53-D-RING truncated mutant can hardly mediate IRS1 degradation	–
human MG53-D-RING truncated mutant	–	–	–	human or mouse MG53-D-RING truncated mutant can hardly mediate IRS1 degradation
